Laboratory results from patent US8658382B2, “Proteins with pteridine glycosyltransferase activity and analysis method using the same” (Inje University Industry-Academic Cooperation Foundation, priority 2008, dated 2014).
“Also recorded” adds a separate entry of the source. Values belong to the molecule of their own block, whether it stands above or below them.

Experiments:
Format in all cases: biochemical
[1] = Analysis of protein activity of the recombinant proteins with UDP-glycosides; settings: for pteridine glycosyltransferase activity (sugar bound to tetrahydrobiopterin): 1 μM tetrahydrobiopterin, 500 μM UDP-glycoside, HPLC, FIG. 10
Method: The protein activity was assayed in 100 μl of reaction mixture having the following composition: 50 mM Tris-HCl (pH 7.5), 10 mM MgCl2, 0.2% ascorbic acid, 1 μM tetrahydrobiopterin, 500 μM UDP-glycoside (one of UDP-glucose, UDP-galactose, UDP-xylose, UDP-glucuronic acid, UDP-galacturonic acid, UDP-N-acetylglucosamine, and UDP-N-acetylgalactosamine) and an appropriate amount of the purified recombinant protein. The reaction was performed at 37 for 10-60 minutes depending on an amount of protein. 30 μl of acidic iodine solution (2%/1% KI/I2 in 1 M HCl) was added to the reaction mixture and allowed in darkness for 1 hour for oxidation thereof. The mixture was centrifuged to recover the supernatant, which was then mixed with 10 μl of 5% ascorbic acid. 30 μl of 1N NaOH was added to the resulting mixture for neutralization and then HPLC analysis was carried out.
HPLC system consisted of Gilson 321 pump, Gilson 234 autoinjector, a fluorescence detector (Schimadzu RF-10AXL), and a system software (Gilson Unipoint version 5.11). Chromatography was performed on a guard column (10 μm, 4.3 mm×1 cm) and an Inertsil ODS-3 (5 μm, 150×2.3 mm, GL Science, Japan) equilibrated with 10 mM potassium phosphate buffer (pH 6.0) at room temperature. Pteridines were eluted isocratically at a flow rate of 1.2 ml/min and monitored at 350/450 nm (excitation/emission). Pteridine peaks were identified and quantified by using authentic pteridines, which were purchased from Dr. B. Schirck's Lab (Jona, Switzerland). Biopterin-glucoside was isolated from Synechococcus sp. PCC 7942 (Y. K. Choi, Y. K. Hwang, Y. H. Kang, Y. S. Park, Chemical structure of 1-O-(L-erythro-biopterin-2′-yl)-alpha-glucose isolated from a cyanobacterium Synechococcus sp. PCC 7942, Pteridines, 12 (2001) 121-125).

[2] = Characterization of enzyme activity by amount of protein, compared with BGluT; settings: production of tetrahydrobiopterin-glycoside by amount of protein (0.05-1.0 μg), FIG. 11
Method: The enzymatic activities for the isolated proteins were compared with that of BGluT. First, production profiles of tetrahydrobiopterin(BH4)-glucoside produced according to amounts of the proteins was compared with that of BGluT. The enzyme activities were represented as a percentage to all converted amounts. The reaction condition was as follows. That is, reactions were performed in a final volume of 100 μl, which consisted of 50 mM Tris-HCl (pH 7.5), 10 mM MgCl2, 0.05% ascorbic acid, 1 μM tetrahydrobiopterin, 500 μM UDP-glucose or UDP-xylose, and a protein (0.05-1.0 μg). The reaction mixture was incubated at 37 for 20 minutes. 30 μl of acidic iodine solution (2%/1% KI/I2 in 1 M HCl) was added thereto in darkness for 1 hour at room temperature, so as to oxidize the reaction mixture. After centrifugation, the resulting supernatant was mixed with 10 μl of 5% ascorbic acid and neutralized with 30 μl of 1N NaOH for injection to HPLC.

[3] = Pteridine glycosyltransferase activity with human urine; settings: 1 μg protein, 10 μl human urine in 100 μl, FIG. 12
Method: Also, 1 μg of each protein was added to 100 μl of reaction solution containing 10 μl of human urine instead of tetrahydrobiopterin. The reaction mixture was incubated at for 20 minutes. For CY-49, 500 μM UDP-xylose was added as a substrate; and for other enzymes, UDP-glucose was added. Other reaction conditions were the same as in the above.

HPLC chromatogram of the reaction mixture with human urine [3]: very similar to that of BGluT
B1: CY-7: recombinant pteridine glycosyltransferase from Spirulina platensis CY-7, amino acid SEQ ID NO 2 (protein)
chain: MTPTSWKLLFISTPVGPLGSGLGGGVELTLLNMAKALKSRGHDITVVAPSGSVLESLSIIEIPGELQPIAQNQDRDSLITIPENSVLGNMWEYGRQVQTNYHAIVNFAFDWLPFYLTPFFDTPIAHCVSMASLISALDQIVGQVMKQFPGTVGFHSHTQAATFGSDLDYACLGSGLEMERYQFCEQPHQQLAWMGRISPEKGLEDAIAAADKTGIPLEIFGKIQDDQYWQNILNTYPNAPLNYRGFLNTDELQQGLRQCRGLLMTHRWVEAFGNVAIEALACGVPVISYRRGGPAEIVRDGETGWLVEPDSVTGLVDAIAKFEQIDRRQCRAVAEKEYSLAALGDRLEKWLSDVTRLKN
modifications: Spirulina platensis CY-7
Substrate for glucosylation [1]: Glucose
pteridine glycosyltransferase activity (sugar bound to tetrahydrobiopterin) [1]: an activity for binding glucose to tetrahydrobiopterin
activity compared with BGluT [2]: higher activities than BGluT; also recorded: more excellent activity than BGluT

activity compared with BGluT [2]: higher activities than BGluT
B2: CY-49: recombinant pteridine glycosyltransferase from Spirulina maxima CY-49, amino acid SEQ ID NO 3, transfers xylose (protein)
chain: MPQKSWKLLFISTPVGPLGSGLGGGVELTLLNMAKALHSRGHDITVVAPSGSVLESLSVIEISGKLQPIAQNQDRDSLITIPENSVLGNMWEYGRQVQTNYHAIVNFAFDWLPFYLTPFFPTPIAHWVSMGSLISALDQIVVEVMKQFPGTVGFYSHTQAATFGSDLGYACLGSGLEMDRYQFCDQPHQQLAWMGRISPEKGLEDAIAAADKTGIPLAIFGKIQDEQYWQNILNTYPNAPLNYRGFLNTDELQQGLRECRGLLMTHRWVEAFGNVAIEALACGVPVISYRRGGPAEIVRDGETGWLVEPDSVTGLVDAIAKLEQIDRRQCRALAEKEYSLVALGDRLETWLSDVIALKN
modifications: Spirulina maxima CY-49
Substrate for glucosylation [1]: Xylose
pteridine glycosyltransferase activity (sugar bound to tetrahydrobiopterin) [1]: an activity for binding xylose to tetrahydrobiopterin
HPLC chromatogram of the reaction mixture with human urine [3]: showed the peak of biopterin-xylose, instead of biopterin-glucose
